# Values quoted from earlier work as cited in paper PMC5472405.
# Target: CXCR4 (Homo sapiens) (UniProt P61073)
# Sequence (P61073 whole entry): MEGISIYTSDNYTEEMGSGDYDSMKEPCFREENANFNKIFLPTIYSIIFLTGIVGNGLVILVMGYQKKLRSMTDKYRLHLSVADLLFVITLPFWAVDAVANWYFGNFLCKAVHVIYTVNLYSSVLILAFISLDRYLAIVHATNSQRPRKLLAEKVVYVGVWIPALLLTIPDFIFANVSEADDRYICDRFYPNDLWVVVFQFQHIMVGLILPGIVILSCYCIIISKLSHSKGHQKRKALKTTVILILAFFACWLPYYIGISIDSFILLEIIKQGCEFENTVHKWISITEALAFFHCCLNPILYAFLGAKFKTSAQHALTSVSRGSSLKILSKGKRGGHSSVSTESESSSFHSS
# Sequence of CXCL14 (O95715 35-111): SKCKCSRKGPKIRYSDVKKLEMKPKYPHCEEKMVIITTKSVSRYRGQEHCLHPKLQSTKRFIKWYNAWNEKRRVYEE
substance,measurement,value
CXCL14 (from UniProt O95715),Kd,0.0147 µM
